These results are taken from publication PMC4811699 (Biochemistry, 2016).

The data set deals with the molecule itself. Kind of data set: crystal structure.

B1: Methanococcus jannaschii Thi4 (thiazole synthase) (enzyme)
chain: MVNLMNIKDIKLNADETKTTKAILKASFDMWLDIVEADVVIVGAGPSGLTCARYLAKEGFKVVVLERHLAFGGGTWGGGMGFPYIVVEEPADELLREVGIKLIDMGDGYYVADSVEVPAKLAVAAMDAGAKILTGIVVEDLILREDGVAGVVINSYAIERAGLHIDPLTIRSKVVVDATGHEASIVNILVKKNKLEADVPGEKSMWAEKGENALLRNTREVYPNLFVCGMAANASHGGYRMGAIFGGMYLSGKLCAELITEKLKNKE
Usually stoichiometry N stands for a count of units in the complex or per binding partner. With B1, the “stoichiometry N” value turned out to be 8.
